Laboratory results taken from the supplement of paper PMC12667976.

B1: library; numbered along this chain (parent)
chain: MATDAALRRLLRLHRTEIAVAVDSAFPLLHALADHDVVPEDKFQETLHLKEKEGCPQAFHALLSWLLTQDSTAILDFWRVLFKDYNLERYGRLQPILDSFPKDVDLSQPRKGRKPPAVPKALVPPPRLPTKRKASEEARAAAPAALTPRGTASPGSQLKAKPPKKPESSAEQQRLPLGNGIQTMSASVQRAVAMSSGDVPGARGAVEGILIQQVFESGGSKKCIQVGGEFYTPSKFEDSGSGKNKARSSSGPKPLVRAKGAQGAAPGGGEARLGQQGSVPAPLALPSDPQLHQKNEDECAVCRDGGELICCDGCPRAFHLACLSPPLREIPSGTWRCSSCLQATVQEVQPRAEEPRPQEPPVETPLPPGLRSAGEEVRGPPGEPLAGMDTTLVYKHLPAPPSAAPLPGLDSSALHPLLCVGPEGQQNLAPGARCGVCGDGTDVLRCTHCAAAFHWRCHFPAGTSRPGTGLRCRSCSGDVTPAPVEGVLAPSPARLAPGPAKDDTASHEPALHRDDLESLLSEHTFDGILQWAIQSMARPAAPFPS

Variants of: B1
Assay: AIRE transcriptional activation functional score (insulin promoter-GFP; nonsense median 0, synonymous median 1) (normalised score); higher = higher AIRE activity (more reporter activation)
Conditions: with insulin promoter-GFP reporter in HEK293
Procedure: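 Deep mutational scan of full-length human AIRE (codon-optimized cDNA, DT-POPCode NNN libraries over three regions) integrated at a Bxb1 landing pad in HEK293 cells carrying an insulin core promoter-GFP reporter at a Flp-In site. Cells were sorted for the top 10% GFP about 14 days after transfection. Variant frequency log-ratios (select vs non-select, TileSeq) were rescaled so that the nonsense median is 0 and the synonymous median is 1, then averaged over biological replicates.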

AIRE transcriptional activation functional score, by site and new letter:
P154: A 0.676, S 0.685, Q -0.0735, F 1.89, R 0.579, H 0.26, L 1.36, Y 1.68, T 1.35, N 0.642, C 0.692, V 0.461, K -1.06, G 0.75, M -0.062, W 1.13, I 1.59, E 0.475, D 0.0296
T147: V 0.966, H 1.22, W 1.75, Q 0.724, L 1.05, P 0.125, C 0.358, A 0.279, M 1.19, F 1.49, Y 0.76, E 1.45, G 0.811, S 0.771, K 0.787, D 0.817, N 1.26, I 1.16, R 1.03
R149: K 0.675, W 1.11, E 1.02, A 1.19, C 0.794, N 0.726, P 0.874, L 1.22, H 1.12, Y 0.303, M 0.41, T 0.559, D 1.12, Q 1.71, G 0.663, V 0.621, I 0.113, F 0.857, S 1.26
L146: I 0.888, M 0.496, R 0.262, F 0.9, K 0.924, C 0.639, S 1.03, N 0.353, D 1.73, P 0.73, A 0.454, Q 1.05, W 1.42, V 0.912, Y 1.24, G 0.344, E 0.882, H 0.618, T 1.09
K159: F 1.44, D 0.68, H 1.18, E 0.955, G 0.883, C 1.14, A 0.394
S153: V 0.888, P 1.7, E 1.14, Q 0.582, H 1.41, A 0.85, G 1.21, D 0.728, I 1.03, M 1.09, W 1.4, R 0.588, L 1.16, T 0.818, Y 0.691, C 1.2, F 1.67, N 0.697, K 0.285
A141: W 1.18, Y 1.66, T 0.967, S 1.01, V 1
P143: L 1.11, W 1.15, R 0.548, G 0.958, Y 1.39, A 1.18, T 1.49, S 0.96, N 1.32, E 1.5, C 0.956, Q 1.33, V 0.964, D 1.01, F 1.28, K 0.307, M 1.02, I 0.862, H 1.09
G150: V 0.822, D -0.34, F 1.34, S 1.63, E 0.763, M 0.246, N 0.149, H 1.19, R 0.148, K 1.53, I 1.08, A -0.308, C 1.38, W 2.25, P 0.879, T 0.661, L 1.3, Y 2.21
A152: D 0.696, K 0.993, I 0.777, Q 0.894, Y 1.21, P 0.594, H 0.789, F 1.55, S 0.715, T 1.32, C 0.402, M 1.86, W 1.68, R 0.913, E -0.141, L 1.19, V 1.17, N 0.485, G 0.815
L158: H 0.949, C 0.528, S 0.724, A 0.834, T 0.209, G 1.33, E 0.986, V 0.815, D 0.772, F 1.27, R 0.202, P 0.723, K 0.11, N 1.19, Y 1.07, M 0.957, W 1.22, Q 0.833, I 0.959
A144: G 1.31, T 1.02, V 1.1, F 1.26, S 0.773, P 1.65, Y 1.48, N 0.39, Q 0.126, W 1.99, M 0.931, H 0.0775, R 0.836, K 0.364, D 0.251, E 0.655, I 0.989, C 1.04, L 1.17
P148: N 0.598, W 0.0844, S 1.19, L 1.45, I 1.49, V 1.45, Q 1.14, A 0.746, Y 1.97, D 0.772, K -0.163, T 1.29, R 0.931, M 0.633, G 0.361, F 1.53, H 0.972, E 1.67, C 1.31
T151: A 1.37, N 0.966, Y 1.44, S 1.01, M 0.378, E 1.13, W 1.97, I 1.3, R 0.807, G 1.36, P 1.01, F 1.76, D 1.27, V 1.5, H 1.34, L 0.905, K 0.845, C 0.915, Q 1.28
A142: L 1.17, G 1.29, E 1.17, P 0.882, N 0.413, S 0.968, Q -0.0872, V 1.27, W 1.28, F 1.16, D 1.05, H 0.486, K 0.314, M 0.975, C 1.03, R 0.685, T 0.704, I 0.926, Y 1.14
G155: A 1.44, E 0.777, I 0.209, P -0.203, S 0.589, R 1.01, V 0.534, W 1.83, M 2.34, L 0.509, Q -0.156, K 0.662, H 1.71, N 0.154, C 0.555, D 0.338, Y 1.19, F 1.61, T 0.66
Q157: H 1.34, Y 1.31, W 0.173, R 0.62, I 0.859, K 0.787, F 1.5, S 1.05, G 1.08, A 1.13, M 0.398, V 0.829, P 1.1, T 0.825, N 0.858, L 1.26, C 1.27, E 1.26, D 0.498
S156: H 0.981, V 1.13, I 1.37, M 0.855, L 1.55, N 1.39, D 0.928, Q 0.543, C 1.38, T 1.75, W 1.64, P 0.405, F 1.53, Y 0.901, G 0.917, R 0.968, A 0.976, E 0.377, K 0.349
A145: K 0.907, T 1.21, Q 1.12, C 1.07, G 1.29, L 1.19, I 0.806, N 0.349, P 0.887, H 1.37, S 1.4, F 1.23, V 0.722, D 0.593, E 0.0573, Y 1.66, W 2.05, R 0.804, M 0.474
